target: FcγRIIIa extracellular domain with C-terminal His tag (human, UniProt P08637 17-208); assay: SPR (Biacore), relative binding activity; GpH7-A5/GpH7-B3/GpL16-k0 = 100
Sequence (P08637 17-208): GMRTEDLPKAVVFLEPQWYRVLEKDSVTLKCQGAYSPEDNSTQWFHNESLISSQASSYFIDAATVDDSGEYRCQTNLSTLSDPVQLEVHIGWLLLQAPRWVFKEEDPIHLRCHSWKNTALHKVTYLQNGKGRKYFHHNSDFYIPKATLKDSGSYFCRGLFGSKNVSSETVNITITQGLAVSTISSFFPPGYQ

| FcγRIIIa BINDING ACTIVITY [%] | Binder |
| --- | --- |
| 13 | GpH7-A48/GpH7-B3-03-20W/GpL16-k0 (antibody, human IgG1, kappa, H1 P329R; H2 G236W) heavy 1: QVQLVQSGAEVKKPGASVTVSCKASGYTFTDYEMHWIRQPPGEGLEWIGAIDPKTGDTAYSESFQDRVTLTADKSTSTAYMELSSLTSEDTAVYYCTRFYSYTYWGQGTLVTVSSASTKGPSVFPLAPSSKSTSGGTAALGCLVKDYFPEPVTVSWNSGALTSGVHTFPAVLQSSGLYSLSSVVTVPSSSLGTQTYICNVNHKPSNTKVDKKVEPKSCDKTHTCPPCPAPELLGGPSVFLFPPKPKDTLMISRTPEVTCVVVDVSHEDPEVKFNWYVDGVEVHNAKTKPREEQYNSTYRVVSVLTVLHQDWLNGKEYKCKVSNKALRAPIEKTISKAKGQPREPQVYTLPPSRKELTKNQVSLTCLVKGFYPSDIAVEWESNGQPENNYKTTPPVLDSDGSFFLYSKLTVDKSRWQQGNVFSCSVMHEALHNRYTQKSLSLSP heavy 2: not shown light: DIVMTQSPLSLPVTPGEPASISCQASESLVHSNRNTYLHWYLQKPGQSPQLLIYKVSNRFSGVPDRFSGSGSGTDFTLKISRVEAEDVGVYYCSQNTHVPPTFGQGTKVEIERTVAAPSVFIFPPSDEQLKSGTASVVCLLNNFYPREAKVQWKVDNALQSGNSQESVTEQDSKDSTYSLSSTLTLSKADYEKHKVYACEVTHQGLSSPVTKSFNRGEC |
| 47 | GpH7-A48/GpH7-B3-15-02A/GpL16-k0 (antibody, human IgG1, kappa, H1 P329R; H2 S298A) heavy 1: QVQLVQSGAEVKKPGASVTVSCKASGYTFTDYEMHWIRQPPGEGLEWIGAIDPKTGDTAYSESFQDRVTLTADKSTSTAYMELSSLTSEDTAVYYCTRFYSYTYWGQGTLVTVSSASTKGPSVFPLAPSSKSTSGGTAALGCLVKDYFPEPVTVSWNSGALTSGVHTFPAVLQSSGLYSLSSVVTVPSSSLGTQTYICNVNHKPSNTKVDKKVEPKSCDKTHTCPPCPAPELLGGPSVFLFPPKPKDTLMISRTPEVTCVVVDVSHEDPEVKFNWYVDGVEVHNAKTKPREEQYNSTYRVVSVLTVLHQDWLNGKEYKCKVSNKALRAPIEKTISKAKGQPREPQVYTLPPSRKELTKNQVSLTCLVKGFYPSDIAVEWESNGQPENNYKTTPPVLDSDGSFFLYSKLTVDKSRWQQGNVFSCSVMHEALHNRYTQKSLSLSP heavy 2: not shown light: DIVMTQSPLSLPVTPGEPASISCQASESLVHSNRNTYLHWYLQKPGQSPQLLIYKVSNRFSGVPDRFSGSGSGTDFTLKISRVEAEDVGVYYCSQNTHVPPTFGQGTKVEIERTVAAPSVFIFPPSDEQLKSGTASVVCLLNNFYPREAKVQWKVDNALQSGNSQESVTEQDSKDSTYSLSSTLTLSKADYEKHKVYACEVTHQGLSSPVTKSFNRGEC |
| 56 | GpH7-A5/GpH7-HA6/GpL16-k0 (antibody, human IgG1, kappa, H2 G236W and P329R) heavy 1: not shown heavy 2: QVQLVQSGAEVKKPGASVTVSCKASGYTFTDYEMHWIRQPPGEGLEWIGAIDPKTGDTAYSESFQDRVTLTADKSTSTAYMELSSLTSEDTAVYYCTRFYSYTYWGQGTLVTVSSASTKGPSVFPLAPSSKSTSGGTAALGCLVKDYFPEPVTVSWNSGALTSGVHTFPAVLQSSGLYSLSSVVTVPSSSLGTQTYICNVNHKPSNTKVDKKVEPKSCDKTHTCPPCPAPELLWGPSVFLFPPKPKDTLMISRTPEVTCVVVDVSHEDPEVKFNWYVDGVEVHNAKTKPREEQYNSTYRVVSVLTVLHQDWLNGKEYKCKVSNKALRAPIEKTISKAKGQPREPQVYTLPPSRDELTKNQVSLTCLVKGFYPSDIAVEWESNGQPENNYKTTPPVLDSDGSFFLYSKLTVDKSRWQQGNVFSCSVMHEALHNHYTQESLSLSP light: DIVMTQSPLSLPVTPGEPASISCQASESLVHSNRNTYLHWYLQKPGQSPQLLIYKVSNRFSGVPDRFSGSGSGTDFTLKISRVEAEDVGVYYCSQNTHVPPTFGQGTKVEIERTVAAPSVFIFPPSDEQLKSGTASVVCLLNNFYPREAKVQWKVDNALQSGNSQESVTEQDSKDSTYSLSSTLTLSKADYEKHKVYACEVTHQGLSSPVTKSFNRGEC |

Source: patent US20150344570A1 (published 2015)
